± gives the uncertainty stated by the source.
Test: self-splicing fitness, log relative to wild type (ln ratio); higher = more splicing; Tetrahymena group I intron in knt gene, E. coli kanamycin selection, DiMSum; sequences stand for … in CUCUCU…GGAGGGAAAAGUUAUCAGGCAUGCACCUGGUAGCUAGUCUUUAAACCAAUAGAUUGCAUCGGUUUAAAAGGCAAGACCGUCAAAUUGCGGGAAAGGGGUCAACAGCCGUUCAGUACCAAGUCUCAGGGGAAACUUUGAGAUGGCCUUGCAAAGGGUAUGGUAAUAAGCUGACGGACAUGGUCCUAACCACGCAGCCAAGUCCUAAGUCAACAGAUCUUCUGUUGAUAUGGAUGCAGUUCACAGACUAAAUGUCGGUCGGGGAAGAUGUAUUCUUCUCAUAAGAUAUAGUCGGACCUCUCCUUAAUGGGAGCUAGCGGAUGAAGUGAUGCAACACUGGAGCCGCUGGGAACUAAUUUGUAUGCGAAAGUAUAUUGAUUAGUUUUGGAGUACUCGUGGUCG
Procedure, shortened: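 Pooled colonies went to amplicon sequencing on an Illumina HiSeq 2500 after six replicate transformations. The plates were LB agar with 100 μg/mL carbenicillin, 50 μM IPTG and 0.2% rhamnose, with or without 25 μg/mL kanamycin, incubated overnight at 37°C or 30°C. The E. coli BL21(DE3) library had all eight P1ex-region intron nucleotides randomised, the intron placed in the knt kanamycin-resistance gene on pET-22b(+). DiMSum fitness is the error-weighted combination of replicate fold changes, kanamycin against none, normalised to wild type.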

Sequence | self-splicing fitness (ln) (30 °C) | self-splicing fitness (ln) (37 °C)
ACAAAGCAAUAUUACGAUUU | -0.651 ± 0.066 | -0.399 ± 0.078
ACAAAGCAAUAUUACGCACA | -0.593 ± 0.083 | -0.0238 ± 0.099
ACAAAGCAAUAUUACGCGAG | -1.33 ± 0.06 | -0.621 ± 0.072
ACAAAGCAAUAUUACGCGCC | -0.241 ± 0.083 | -0.055 ± 0.1
ACAAAGCAAUAUUACGCGGA | -1.7 ± 0.078 | -0.866 ± 0.072
ACAAAGCAAUAUUACGCUUA | -2.37 ± 0.12 | -1.71 ± 0.13
ACAAAGCAAUAUUACGGAUG | -1.59 ± 0.087 | -1.08 ± 0.1
ACAAAGCAAUAUUACGGCGA | -0.177 ± 0.072 | 0.19 ± 0.094
ACAAAGCAAUAUUACGGGAA | -2.44 ± 0.18 | -2.48 ± 0.17
ACAAAGCAAUAUUACGGUCU | -0.435 ± 0.056 | 0.237 ± 0.079
ACAAAGCAAUAUUACGGUGG | -3.64 ± 0.11 | -2.07 ± 0.12
ACAAAGCAAUAUUACGGUUG | -2.44 ± 0.07 | -1.89 ± 0.09
ACAAAGCAAUAUUACGUAAC | -3.21 ± 0.21 | -1.67 ± 0.14
ACAAAGCAAUAUUACGUCCA | -1.62 ± 0.097 | -0.403 ± 0.1
ACAAAGCAAUAUUACGUCUG | -1.1 ± 0.056 | -0.244 ± 0.074
ACAAAGCAAUAUUACGUGAA | -1.51 ± 0.074 | -1.5 ± 0.083
ACAAAGCAAUAUUACGUGCG | -1.07 ± 0.066 | -0.382 ± 0.076
ACACAGCAAUAUUACGAAAU | -2.47 ± 0.13 | -1.87 ± 0.12
ACACAGCAAUAUUACGAACC | -2.57 ± 0.48 | -1.09 ± 0.45
ACACAGCAAUAUUACGACCG | -0.326 ± 0.077 | 0.342 ± 0.11
ACACAGCAAUAUUACGACCU | -0.472 ± 0.069 | 0.384 ± 0.092
ACACAGCAAUAUUACGCAUG | -1.04 ± 0.075 | -0.692 ± 0.081
ACACAGCAAUAUUACGCAUU | -2.47 ± 0.081 | -1.5 ± 0.087
ACACAGCAAUAUUACGCCCA | -1.49 ± 0.075 | -0.603 ± 0.073
ACACAGCAAUAUUACGCCCU | -0.215 ± 0.072 | -0.0145 ± 0.077

Sequence | self-splicing fitness (ln) (30 °C) | self-splicing fitness (ln) (37 °C)
ACACAGCAAUAUUACGGCGU | -0.67 ± 0.07 | -0.414 ± 0.093
ACACAGCAAUAUUACGGCUG | -2.88 ± 0.12 | -1.42 ± 0.1
ACACAGCAAUAUUACGUAGU | -2.48 ± 0.077 | -1.71 ± 0.088
ACACAGCAAUAUUACGUCGC | -4.02 ± 0.21 | -2.56 ± 0.17
ACACAGCAAUAUUACGUGAC | -4.1 ± 0.13 | -2.05 ± 0.11
ACACAGCAAUAUUACGUUCG | -0.803 ± 0.05 | -1.13 ± 0.064
ACAGAGCAAUAUUACGAAGC | -2.69 ± 0.26 | 
ACAGAGCAAUAUUACGACUC | -2.94 ± 0.33 | -2.47 ± 0.24
ACAGAGCAAUAUUACGAUAA | -4.19 ± 0.46 | -2.51 ± 0.36
ACAGAGCAAUAUUACGAUUC | -2.88 ± 0.27 | -1.72 ± 0.31
ACAGAGCAAUAUUACGCAAC |  | -2.1 ± 0.41
ACAGAGCAAUAUUACGCACC | -3.6 ± 0.47 | -2.04 ± 0.38
ACAGAGCAAUAUUACGCCAA | -2.92 ± 0.22 | -2.78 ± 0.32
ACAGAGCAAUAUUACGCCUU | -3.76 ± 0.42 | -1.9 ± 0.3
ACAGAGCAAUAUUACGCGCC | -3.3 ± 0.36 | -1.83 ± 0.42
ACAGAGCAAUAUUACGCGCU |  | -1.91 ± 0.2
ACAGAGCAAUAUUACGCUCU | -3.01 ± 0.24 | -2.41 ± 0.49
ACAGAGCAAUAUUACGCUUG | -1.62 ± 0.12 | -1.63 ± 0.17
ACAGAGCAAUAUUACGGGAA | -2.54 ± 0.19 | -2.98 ± 0.34
ACAGAGCAAUAUUACGGUCG | -2.29 ± 0.11 | -1.36 ± 0.16
ACAGAGCAAUAUUACGGUCU | -3.77 ± 0.18 | -2.48 ± 0.15
ACAGAGCAAUAUUACGUCAU | -3.71 ± 0.17 | -2.75 ± 0.27
ACAGAGCAAUAUUACGUCCG | -3.65 ± 0.21 | -2.52 ± 0.27
ACAGAGCAAUAUUACGUCGU | -3.11 ± 0.16 | -0.947 ± 0.15
ACAGAGCAAUAUUACGUGCA | -3.73 ± 0.29 | -1.57 ± 0.25

Sequence | self-splicing fitness (ln) (30 °C) | self-splicing fitness (ln) (37 °C)
ACAGAGCAAUAUUACGUGCC | -3.54 ± 0.46 | 
ACAGAGCAAUAUUACGUGUC | -3.27 ± 0.22 | -2.94 ± 0.38
ACAUAGCAAUAUUACGAAUU | -3.3 ± 0.2 | -1.26 ± 0.14
ACAUAGCAAUAUUACGACGA | -0.942 ± 0.068 | -0.294 ± 0.078
ACAUAGCAAUAUUACGAGAA | -2.62 ± 0.29 | -2.35 ± 0.25
ACAUAGCAAUAUUACGAGAG | -3.57 ± 0.28 | -2.55 ± 0.18
ACAUAGCAAUAUUACGAGCG | -0.74 ± 0.12 | -0.0992 ± 0.12
ACAUAGCAAUAUUACGAGGA |  | -2.56 ± 0.29
ACAUAGCAAUAUUACGAGUG | -1.16 ± 0.073 | -1.05 ± 0.09
ACAUAGCAAUAUUACGAUCC | -1.77 ± 0.15 | -0.941 ± 0.16
ACAUAGCAAUAUUACGAUCU | 0.0431 ± 0.089 | -0.196 ± 0.1
ACAUAGCAAUAUUACGCAUC | -3.98 ± 0.34 | -1.3 ± 0.14
ACAUAGCAAUAUUACGCCAU | -3.25 ± 0.28 | -2.08 ± 0.22
ACAUAGCAAUAUUACGCCGG | -0.986 ± 0.14 | 0.077 ± 0.21
ACAUAGCAAUAUUACGCGGG | -3.09 ± 0.12 | -1.64 ± 0.13
ACAUAGCAAUAUUACGCUGA | -1.47 ± 0.093 | -0.74 ± 0.12
ACAUAGCAAUAUUACGGACC | -1.56 ± 0.12 | -1.84 ± 0.23
ACAUAGCAAUAUUACGGGUU | -2.41 ± 0.08 | -1.77 ± 0.11
ACAUAGCAAUAUUACGGUAG | -4.45 ± 0.42 | -2.89 ± 0.32
ACAUAGCAAUAUUACGGUCA | -0.873 ± 0.13 | 0.165 ± 0.13
ACAUAGCAAUAUUACGGUUA | -1.05 ± 0.098 | -0.751 ± 0.095
ACAUAGCAAUAUUACGUAGU | -2.54 ± 0.098 | -2.32 ± 0.12
ACAUAGCAAUAUUACGUCAC | -3.32 ± 0.18 | -2.93 ± 0.28
ACAUAGCAAUAUUACGUCAG | -2.66 ± 0.13 | -3.18 ± 0.18
ACAUAGCAAUAUUACGUCCA | -1.24 ± 0.14 | -0.641 ± 0.17

Sequence | self-splicing fitness (ln) (30 °C) | self-splicing fitness (ln) (37 °C)
ACAUAGCAAUAUUACGUGCC | -2.1 ± 0.15 | -0.986 ± 0.19
ACAUAGCAAUAUUACGUUAA | -3.09 ± 0.19 | -1.36 ± 0.15
ACAUAGCAAUAUUACGUUAC | -1.52 ± 0.22 | 
ACCAAGCAAUAUUACGAACA | -2.91 ± 0.16 | -0.543 ± 0.089
ACCAAGCAAUAUUACGAAUU | -3.46 ± 0.17 | -2.13 ± 0.14
ACCAAGCAAUAUUACGAGCU | -1.62 ± 0.056 | -0.791 ± 0.072
ACCAAGCAAUAUUACGAGGA | -3.15 ± 0.19 | -2.7 ± 0.16
ACCAAGCAAUAUUACGAGGG | -2.88 ± 0.15 | -1.49 ± 0.12
ACCAAGCAAUAUUACGCAUC | -3.18 ± 0.11 | -1.74 ± 0.11
ACCAAGCAAUAUUACGCCAA | -1.97 ± 0.18 | -2.71 ± 0.23
ACCAAGCAAUAUUACGCGCG | -1.5 ± 0.074 | -0.523 ± 0.081
ACCAAGCAAUAUUACGCGUU | -1.91 ± 0.06 | -0.292 ± 0.075
ACCAAGCAAUAUUACGCUUU | -2.41 ± 0.093 | -1.45 ± 0.1
ACCAAGCAAUAUUACGGAUA | -2.56 ± 0.14 | -1.56 ± 0.12
ACCAAGCAAUAUUACGGCGC | 0.119 ± 0.092 | -0.413 ± 0.11
ACCAAGCAAUAUUACGGGGA | -2.16 ± 0.09 | -1.85 ± 0.098
ACCAAGCAAUAUUACGGGUG | -1.05 ± 0.043 | -0.597 ± 0.059
ACCAAGCAAUAUUACGGUAG | -4.33 ± 0.16 | -2.5 ± 0.14
ACCAAGCAAUAUUACGUAAA | -2.62 ± 0.13 | -1.38 ± 0.16
ACCAAGCAAUAUUACGUAGU | -2.49 ± 0.078 | -1.75 ± 0.088
ACCAAGCAAUAUUACGUCAU | -3.16 ± 0.096 | -1.71 ± 0.09
ACCAAGCAAUAUUACGUCGC | -3.25 ± 0.19 | -1.27 ± 0.14

Source: the supplement of paper PMC7877785
